Experimental data from PMC6016246, “Cytokinin Signaling in Mycobacterium tuberculosis” (mBio, 2018).

Experiments:
Rv0078 R48M = biological target: T1, Rv0078 R48M (Mycobacterium tuberculosis, UniProt O53623 1-201, R48M); assay: EMSA; […], room temperature 30 min; […], buffer not stated; details: protein: recombinant; chain copies: 2; label: 5'-IRDye700 on S21
T1 sequence: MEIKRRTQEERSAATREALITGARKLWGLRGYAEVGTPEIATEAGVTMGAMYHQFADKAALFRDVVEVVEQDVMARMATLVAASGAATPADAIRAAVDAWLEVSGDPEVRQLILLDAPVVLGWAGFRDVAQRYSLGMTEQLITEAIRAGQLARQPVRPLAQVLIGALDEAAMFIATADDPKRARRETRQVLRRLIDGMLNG

Rv0078 = biological target: T2, Rv0078 (Mycobacterium tuberculosis, UniProt O53623 1-201); assay: as above; details: protein: recombinant; tags: C-terminal His6; chain copies: 4; label: IRDye700
T2 sequence: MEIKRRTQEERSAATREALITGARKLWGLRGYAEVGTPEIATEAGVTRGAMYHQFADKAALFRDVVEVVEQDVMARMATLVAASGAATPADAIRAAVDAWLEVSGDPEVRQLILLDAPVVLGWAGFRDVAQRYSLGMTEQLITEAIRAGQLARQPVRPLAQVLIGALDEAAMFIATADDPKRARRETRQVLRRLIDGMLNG

B1: +19/-14 (WT) (dsDNA)
DNA 1: GTACATTTACAAGCAGACTGCCGGTAACTTACCCCAGACCAGGGCAC
DNA 2: GTGCCCTGGTCTGG
DNA 3: GGTAAGTTACCGGCAGTCTGCTTGTAAATGTAC
Rv0078 R48M
  binding result: no binding

B2: probe S1 (central dimer G-to-A) (dsDNA)
DNA 1: GTACATTTACAAGTAGACTACCGGTAACTTACC
DNA 2: GGTAAGTTACCGGTAGTCTACTTGTAAATGTAC
Rv0078
  binding result: no binding
